Data published in patent US20140162285A1, “Methods of Modulating Vesicular Trafficking” (The General Hospital Corporation, priority 2009, published 2014).

Target: T1, ARNO PH-domain (Homo sapiens, UniProt Q99418)
T1 construct: iv) 253-378aa, plekstrin-homology (PH) domain; made in house; host or cells: E. coli BL21(DE3)
T1 sequence (Q99418 253-378): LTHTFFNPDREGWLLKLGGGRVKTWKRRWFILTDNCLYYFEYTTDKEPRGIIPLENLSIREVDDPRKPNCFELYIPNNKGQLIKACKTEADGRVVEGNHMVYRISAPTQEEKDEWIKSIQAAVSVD
Experiment: GST pull-down of in vitro translated a2N with ARNO PH-domain
Format: binding
Conditions: Western blot anti-a2N
Procedure: The purified recombinant GST-ARNO(wt) and GST-tagged ARNO domain constructs ([…]) were incubated with 10 μl of in vitro translated 6His-a2N recombinant protein at 4° C. for 2 hours in 500 μl of binding buffer (10 mM HEPES, 1 mM EDTA, 1 mM DTT, 100 mM NaCl, 10% glycerol, 0.1% NP-40) with gentle rotation. Then the interacting recombinant proteins were immobilized on glutathione beads by incubation with 50 μl of 50% glutathione Sepharose 4B slurry for 2 hours at 4° C. The beads were collected by centrifugation and washed 5 times with 500 μl ice-cold binding buffer. Interacting proteins were eluted by boiling in SDS-PAGE sample buffer for 10 min at 95° C., resolved by SDS-PAGE and analyzed by Western blotting using polyclonal anti-a2N antibodies. […]
To examine the ability of these well-defined and functionally distinct domains of ARNO to interact with a2N1-402, full-length ARNO(wt) and its four domains were cloned separately for bacterial expression of recombinant proteins (FIG. 3). […] Interacting proteins were detected by western blot analysis with a2-specific antibodies as described above.

- interaction of a2N with ARNO PH-domain: weakly
B1: a2N: recombinant N-terminal cytosolic tail, amino acid residues 1-402 of mouse V-ATPase a2-subunit (protein)
chain: MGSLFRSESMCLAQLFLQSGTAYECLSALGEKGLVQFRDLNQNVSSFQRKFVGEVKRCEELERILVYLVQEITRADIPLPEGEASPPAPPLKHVLEMQEQLQKLEVELREVTKNKEKLRKNLLELVEYTHMLRVTKTFLKRNVEFEPTYEEFPALENDSLLDYSCMQRLGAKLGFVSGLIQQGRVEAFERMLWRACKGYTIVTYAELDECLEDPETGEVIKWYVFLISFWGEQIGHKVKKICDCYHCHIYPYPNTAEERREIQEGLNTRIQDLYTVLHKTEDYLRQVLCKAAESVCSRVVQVRKMKAIYHMLNMCSFDVTNKCLIAEVWCPEVDLPGLRRALEEGSRESGATIPSFMNTIPTKETPPTLIRTNKFTEGFQNIVDAYGVGSYREVNPALFTII
modifications: left off: small tags and cut ends
notes: recombinant N-terminal cytosolic tail, amino acid residues 1-402 of mouse V-ATPase a2-subunit
